{"source": "patent US20100136573", "test_system": "Recombinant human GST-TDP-43 (N-terminal GST tag, full length), non-phosphorylated", "sequence (chain, as listed by the source)": "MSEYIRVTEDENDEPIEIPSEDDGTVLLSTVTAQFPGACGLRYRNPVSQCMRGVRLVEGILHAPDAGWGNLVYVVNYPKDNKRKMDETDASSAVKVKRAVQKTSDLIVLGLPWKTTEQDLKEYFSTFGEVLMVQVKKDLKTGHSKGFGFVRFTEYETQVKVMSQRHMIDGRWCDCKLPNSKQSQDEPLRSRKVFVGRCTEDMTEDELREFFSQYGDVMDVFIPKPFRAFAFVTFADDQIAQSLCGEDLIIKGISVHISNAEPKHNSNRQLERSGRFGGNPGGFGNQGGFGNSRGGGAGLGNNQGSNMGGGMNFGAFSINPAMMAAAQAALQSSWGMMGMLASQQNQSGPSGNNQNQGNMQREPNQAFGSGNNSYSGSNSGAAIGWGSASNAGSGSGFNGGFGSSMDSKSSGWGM"}
{"substance": "recombinant casein kinase 1 (CK1; New England BioLabs, Inc)", "values": [{"measurement": "in vitro phosphorylation, read by anti-pTDP-43 Western blot", "result": "CK1 effectively phosphorylated GST-TDP-43 at S409/S410 in vitro"}]}
